Experimental data: the supplement of paper PMC7877785
± gives the uncertainty stated by the source.

Assay: self-splicing fitness, log relative to wild type (ln ratio); higher = more splicing; Tetrahymena group I intron in knt gene, E. coli kanamycin selection, DiMSum; sequences stand for … in CUCUCU…GGAGGGAAAAGUUAUCAGGCAUGCACCUGGUAGCUAGUCUUUAAACCAAUAGAUUGCAUCGGUUUAAAAGGCAAGACCGUCAAAUUGCGGGAAAGGGGUCAACAGCCGUUCAGUACCAAGUCUCAGGGGAAACUUUGAGAUGGCCUUGCAAAGGGUAUGGUAAUAAGCUGACGGACAUGGUCCUAACCACGCAGCCAAGUCCUAAGUCAACAGAUCUUCUGUUGAUAUGGAUGCAGUUCACAGACUAAAUGUCGGUCGGGGAAGAUGUAUUCUUCUCAUAAGAUAUAGUCGGACCUCUCCUUAAUGGGAGCUAGCGGAUGAAGUGAUGCAACACUGGAGCCGCUGGGAACUAAUUUGUAUGCGAAAGUAUAUUGAUUAGUUUUGGAGUACUCGUGGUCG
Procedure, shortened: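 Fitness was computed with DiMSum as the error-weighted combination of replicate fold changes, kanamycin versus none, each normalised to wild type. The library randomised all eight intron nucleotides of the P1ex region, with the intron placed in the knt kanamycin-resistance gene on pET-22b(+) in E. coli BL21(DE3). Six replicate transformations were grown overnight at 37°C or 30°C on LB agar with or without 25 μg/mL kanamycin, plus 100 μg/mL carbenicillin, 50 μM IPTG and 0.2% rhamnose. Pooled colonies were amplicon-sequenced on an Illumina HiSeq 2500.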

Sequence | self-splicing fitness (ln) (30 °C) | self-splicing fitness (ln) (37 °C)
UCCAAGCAAUAUUACGGGGC | -4.07 ± 0.23 | -3.13 ± 0.2
AGAGAGCAAUAUUACGGCUA | -1.86 ± 0.46 | -2.19 ± 0.39
CUCAAGCAAUAUUACGUGCG | -2.81 ± 0.14 | -0.8 ± 0.12
GACAAGCAAUAUUACGCGCA | -0.282 ± 0.099 | -0.0559 ± 0.1
GGUUAGCAAUAUUACGAUUU | 0.309 ± 0.089 | 0.0839 ± 0.12
AAUUAGCAAUAUUACGCAAU | -2.4 ± 0.13 | -1.74 ± 0.17
GGUGAGCAAUAUUACGGGCA | -1.68 ± 0.17 | -0.406 ± 0.17
AUAUAGCAAUAUUACGUACG | -2.49 ± 0.2 | -0.317 ± 0.15
GCAUAGCAAUAUUACGUCCU | -1.16 ± 0.12 | -0.534 ± 0.15
GAUGAGCAAUAUUACGCGAA | -3.16 ± 0.16 | -2.04 ± 0.17
AGCGAGCAAUAUUACGUCUA | -1.92 ± 0.13 | -2 ± 0.11
AGCUAGCAAUAUUACGCAUA | -2.4 ± 0.12 | -1.22 ± 0.14
UCAGAGCAAUAUUACGGGCC | -3.69 ± 0.44 | 
CUUGAGCAAUAUUACGUUUA | -3.56 ± 0.26 | -2.88 ± 0.28
UAGUAGCAAUAUUACGCUCU | -1.71 ± 0.16 | -0.589 ± 0.17
ACCCAGCAAUAUUACGGAGG | -2.1 ± 0.098 | -1.35 ± 0.12
CCGCAGCAAUAUUACGCGGU | -3.18 ± 0.16 | -2.5 ± 0.22
AGGGAGCAAUAUUACGCAGG |  | -0.965 ± 0.24
CUUCAGCAAUAUUACGCGGG | -3.7 ± 0.19 | -2.61 ± 0.2

Sequence | self-splicing fitness (ln) (30 °C) | self-splicing fitness (ln) (37 °C)
UCGUAGCAAUAUUACGCUAG | -2.95 ± 0.26 | -2.32 ± 0.29
CGCGAGCAAUAUUACGUACA |  | -2.71 ± 0.43
CAGAAGCAAUAUUACGAUGC | -4.82 ± 0.42 | -2.92 ± 0.35
AGGCAGCAAUAUUACGUAGG | -2.04 ± 0.083 | -1.64 ± 0.12
CCUGAGCAAUAUUACGAUCA | -3.05 ± 0.32 | -2.42 ± 0.24
UUUAAGCAAUAUUACGUUAU | -3.18 ± 0.2 | -2.16 ± 0.22
AUAUAGCAAUAUUACGACAG | -2.12 ± 0.19 | -1.51 ± 0.27
CGCGAGCAAUAUUACGAGGA | -3.16 ± 0.22 | -2.16 ± 0.18
GCACAGCAAUAUUACGUCUA | -0.8 ± 0.06 | -0.367 ± 0.063
CCUUAGCAAUAUUACGACCU | -2.79 ± 0.2 | -1.77 ± 0.29
CUGAAGCAAUAUUACGAACG | 0.17 ± 0.13 | 0.661 ± 0.17
GCAAAGCAAUAUUACGUGUC | -4.47 ± 0.18 | -1.84 ± 0.12
AAUGAGCAAUAUUACGUUCC | -2.71 ± 0.17 | -1.43 ± 0.2
GAUGAGCAAUAUUACGUCGU | -2.4 ± 0.15 | -2.13 ± 0.17
AGUCAGCAAUAUUACGCUGA | -2.55 ± 0.19 | -2.24 ± 0.22
UAGUAGCAAUAUUACGUGGA | -2.56 ± 0.31 | -1.29 ± 0.2
UGCUAGCAAUAUUACGGCCC | -1.72 ± 0.23 | -0.878 ± 0.32
ACUAAGCAAUAUUACGUCGA | -1.04 ± 0.13 | -1.45 ± 0.12
CUACAGCAAUAUUACGCUGC | -2.88 ± 0.22 | -1.77 ± 0.35
